Data taken from the DeepSol protein solubility set.

assay: soluble on expression in E. coli; label from the status in PepcDB or PDB records

Row | Sequence | soluble on expression in E. coli
1 | MSLSRKRKSYSAEFKTRVVLELLGGEETVAQIASKYEITPKSLIDWKKQFLENASLVFDVGSATKAYKDEIEELKTENDALAKKLGKTTIERDWAVGKLKSLGLSNKKDLVTPKLKNLSMARQCEIIDLNRSTLYYEPKPISDNDLKIMKRIDEIYTDISSTYGYRFMHRQLLEDGFSIGVNKVNKLMNTMGIQAIFPKKKRHTSIKNYKHKIYPYLLRELEINRANQVWSGDITYIPIKGGFVYLCAIIDWHSKTILSWKISTTMDTSLVTDVLKEAIEKYDIPVIFNSDQGSQYTSHEHTELLKKHNIQISMNGKGRSIDNIAIERFFRTLKYDEIYINEYSSISDLRFKVSRYINFYNHNRFHSALNYQKPMNVYLEGLKNVAEGHHHHHH | not soluble
2 | MGSDKIHHHHHHGCDDNTGGLGLGMFPGNDQNIKGKLSTFDVTTESVKTGDIYAKTNIGYIGKFTDETFGTYQAGFLAQLNCPDGLTFPEPYKEVTDASGNVISATGRMVVDDKDPENKDVTFIKDGNQIIGNIRAVELYLWYDSYFGDSLTACRLSVYELGGNGKETLNLDNAYYTDINPEDFYDSQNILGTKAYTAVDLSVKDSIRNLSTYVPSVHIAFKEDIATRVGGNILTAARKAKNADKEFNSQLFREAFQGIYVKSDYGDGTVLYIDQPQMNVVYKCYATDSITGKKLQKKDGSGKDSTYYSYRVFATTREVIQANQLKNDPERIDALIKEDKNTYLKSPAGIFTEATLPISDIQNELTGDTLNAVKLTFTNYNQTGDKKFGMAIPSTVMLVRKKFQDSFFKDNKLSDGVSSYLTSHTSSTNQYVFSNITKLVNACIAEKEEAKKNAGSSWDETKWLQENPDWNKVVLIPVLVTYDSSNTTTGQANIIRIQHDLKPGYVRLKGGSLGKTNPDYKLKLEVISTDFGLTTKSN | not soluble
3 | MLRKEEILERTSNGLSVFKHYVPGNWRIGRNFLNPLYEDNKASCNIYFDRRSGIYKMKDFGNDNYSGDCFFFVGQLKGLDCNNSMDFVEILETIDRDLGLGLATGNPIPVTRNSCRVVDNILEETPEKESKPYQFREQKFPLAELMYWQQYGITPEILELYKVCSLRDFQSVTADGTQFTYTSSVTEPMYGYKSKRYIKLYRPFSKTRFLYGGNFGDNYCFGLEQLPAKGDTLFITGGEKDVMSLAAHGFHAICFNSETVTVPPTLIYKLTFRFKHIILLYDTDKTGKESARKQEKQLEEFSVKRLLLPLSGTKEEKDISDYFKAGNTREDFLKLFIEFLDNLYSDTLIMLKSCEIDFNNPPAKAQVIISAGDVPLGTQGNLFGITGGEGTGKSNYIAAMLAGCICQPDKEVDTLGIQITANSKRKAVLLYDTEQSEVQLFKNVSNLLARAKQPDKPEELKAFCLTGMSRKERLHAIVQSMDKFYYQYGGIQLVVIDGIADLVKSANDEAESVAVIDELYRLAGIYNTCILCVLHFVPNGLKLRGHLGSELQRKAATILSIEKDEEPTQSVVKALKVRDGSPLDVPLMLFAWDKAAGMHLYKGEKPREEKEKRKEKELVCVARDIFGRQTHITYIDLCEQVAAGFGRERTYCQKLCSFHAGTGYYH | not soluble
4 | MSLSRLLPDPDVAGAWMVRVGDADQSWIDPDDPTRLEFDYMQRIADHLDVHRPAGERMRVIHLGGAGMCLARYVAATRPTSPQIVCEPDAELTAEVRLKAPLPVRSGIKVRPVDGRSGVAAMREDFADVVILDAFDGARVPGDLVTVEFFADVSRILHSDGIGVANLADSAPLVWTKRVVRSVKEVFSNVCMAAEPATLKGRRYGNIVLAASNGPLHEEDLTRRCSGAAVPFRFIAGDALAKLLADARPFHDGDTESSEGHHHHHH | not soluble
5 | GMVGINTDTENISELLKTYWSIQRISAGYADQNAASLGLTIQQLAMINVIYSTPGISVADLTKRLIITGSSAAANVDGLISLGLVVKLNKTIPNDSMDLTLKLSKKGEDLSKRSTANAFMYKAMMKVFENLTENEIEELIRLNKKVETLLKKSK | soluble
6 | MLSPLAKANLCLNLFGFFKVPLIWACRPKILSLNDQAVEVRIPLKRRNKNHLNSMYFGVLAVGADVAGGYMAMHKANQRGKSVSLAFKSVRGEFHKRPEAAVHFHCVEGEKIDRMLDETARTGERVNQEVHIIATCPTLHGDEPMAEFWLTLSLKIVKLEHHHHHH | soluble
7 | GPGSMESQKRMMWNLKGRSAVAALDPSTRHRIMQSHAMASSFHKPLLATLEVLITPQYVGGLTGPLQKPEPFICHVTRLLQITPDPSIVLAMLHQDVHKYLRVAALFIIRLIGNEAMMREAMRVGWEDYRKIRVYGYVEDLAGTIDSKENNAPDEEEGFVRAPAYGIMCVDEITDRLFNVGESDINKNGGSGNLWLGLRLPPILL | not soluble
8 | MQTFVLATNSETVSQTLCSYLEGVLDLEDSVYAVNSQPGGDRTPPDAVADGKAALEVVSDRLGDQVSVETYQIIRGNSPADDIFDIAAEVDADELVIGVRKRSQTDRLIFGSVAQDIMRQSDYPMRVVPRD | not soluble
9 | MFLKRIELQREKVLSFQEYPFSIPAIKHFQRLELKSRVTFFVGENGSGKSTLLEAIADKCEFNTAGGGRNNYYEVDASESALGDYIRLSWLPKVSNGFFLRAESFYHFASHVDEVDARHAYGGRSLHHQSHGEAFLSLFANRFNRKGIYLLDEPEAALSPRRQLSFLAILHDLVSSGDSQFIIATHSPILLGYPHATILSFDHGTIEETTYEQTEHYQLTRYFLENRERMLRELLGELEHHHHHH | not soluble
10 | VETASLDVYAKYVLRSICQQEWVGERCLKSLCEDSNDLQDPVLSSAQAQRLMQLICYPHRLLDNEDGENPQRQRIKRILQNLDQWTMRQSSLELQLMIKQTPNNEMNSLLENIAKATIEVFQRSAETGSSSGSTASNMPSSSKTKPVLSSLERSGVWLVAPLIAKLPTSVQGHVLKAAGEELEKGQHLGSSSRKERDRQKQKSMSLLSQQPFLSLVLTCLKGQDEQREGLLTSLYSQVHQIVN | not soluble
11 | MVRVKRSQLREGCVLAEDVLGKTKRPIIPKNTVITKPLLLVLEKFLVEEVDVEPLLANGEPFPNVDSASTAAAKQPMAFYLEAVQRYKTWFQSWQAGLPVDIGEIRGVIISLFERMAGQKRELLMLHHYATKDEYLHHHAVSVGLLAGFLAMQLGYSEGECHQIALAGVLADCGMAKVSKRILTNPSALTEAEFNEVKQHPVFSYRMVQKIPALNHGAKLAVLQHHERNDGSGYPLGVKAERIHPYSQIVAVADVYHAMTSERLYRRKQSPFRAIETMQREQFGKLSTEAVAALVNNLIGLQTGAVVKLSNGEMAEVMFIPSDEPARPIVKIIETGQLLSLSVQRDIYIEEMVQG | not soluble
12 | GMNAIRYTKRECKDEKKITEFLNKARTGFLGLSTNDQPYVIPLNFVWHNHAIYFHGASEGRKIKMIEANPEVCFTICEDLGTIVSPVPAHTDTAYMSVIIFGTIEPVSAIEEGTEAMQQMLDKYVPGYYHSPLAASHVEKYRSSLGSRTAIYKISCRERTAKVNEPIESLKFYPGRNVSVDKDSR | soluble
13 | IQTTAPPVKESSFVEKMKKTGRNIIVFYGSQTGTAEEFANRLSKDAHRYGMRGMSADPEEYDLADLSSLPEIDKSLVVFCMATYGEGDPTDNAQDFYDWLQETDVDLTGVKFAVFGLGNKTYEHFNAMGKYVDQRLEQLGAQRIFELGLGDDDGNLEEDFITWREQFWPAVCEFFGVEATGEESSIRQYELVVHEDMDVAKVYTGEMGRLKSYENQKPPFDAKNPFLAAVTANRKLNQGTERHLMHLELDISDSKIRYESGDHVAVYPANDSALVNQIGEILGADLDVIMSLNNLDEESNKKHPFPCPTTYRTALTYYLDITNPPRTNVLYELAQYASEPSEQEHLHKMASSSGEGKELYLSWVVEARRHILAILQDYPSLRPPIDHLCELLPRLQARYYSIASSSKVHPNSVHICAVAVEYEAKSGRVNKGVATSWLRAKEPAGENGGRALVPMFVRKSQFRLPFKSTTPVIMVGPGTGIAPFMGFIQERAWLREQGKEVGETLLYYGCRRSDEDYLYREELARFHKDGALTQLNVAFSREQAHKVYVQHLLKRDREHLWKLIHEGGAHIYVCGDARNMAKDVQNTFYDIVAEFGPMEHTQAVDYVKKLMTKGRYSLDVGS | soluble
14 | EDFFNAKVQEQIERYQRYHNTAYNLEPDIKFSPGGLRDLHLLYWVALRHSGALTLEAILQSGFIYPQEYQQLQESRAFLFKVRFALHLILKRYDNRLLFDRQIKVSELLGFRGEGNPAVEKMMKCFFQALHRISLISNLLIQHYRENVLSSNQDTVIDQLDDDFQLINQSLCLRNSFVFQEKPARILDLFFYLTQYEHVNIHSDTLRQL | not soluble
